Changes are numbered by the printed parent chain. Where no end group is shown, it is not given here.
What was measured:
[1] = molecular target: T1, CRF binding protein (CRF-BP) (Homo sapiens, UniProt P24387); experiment: Binding to CRF binding protein by displacement of [D-125I-Tyr0]-hCRF; conditions: data not shown
T1 sequence (P24387 25-322): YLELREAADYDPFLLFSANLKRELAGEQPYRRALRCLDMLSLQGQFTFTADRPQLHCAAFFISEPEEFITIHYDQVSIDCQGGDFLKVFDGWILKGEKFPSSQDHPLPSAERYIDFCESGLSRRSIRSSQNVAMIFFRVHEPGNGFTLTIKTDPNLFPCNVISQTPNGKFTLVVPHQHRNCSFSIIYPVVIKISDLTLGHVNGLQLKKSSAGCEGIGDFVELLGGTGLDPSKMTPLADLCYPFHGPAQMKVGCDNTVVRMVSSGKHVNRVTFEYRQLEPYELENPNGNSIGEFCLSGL

[2] = system: rats; experiment: Intravenous Ucn III in rats: glucagon secretion and blood sugar; type: in vivo, rat; conditions: given intravenously to rats
Excerpt: It has been shown by others that glucagon can act directly on the beta cell to stimulate insulin secretion in a paracrine manner. Thus, Ucn III may provide a means for the beta cell to signal the alpha cell, which produces glucagon which would then, in turn, drive the beta cell. Thus, Ucn III (or any CRF-R2 agonist) may be used to stimulate and sustain islet functions.

[3] = molecular target: T2, CRF-R1 (Rattus norvegicus, UniProt P35353); experiment: cAMP accumulation in primary rat anterior pituitary cells expressing endogenous CRF-R1; type: cell-based; conditions: FIG. 3B; Ucn III even at concentrations >1 μM
T2 construct: cells expressing endogenous CRF-R1 (cultured primary anterior pituitary cells, (5)) or CRF-R2β (A7r5 cells, (27)); endogenous in cells; host or cells: primary rat anterior pituitary cells in culture
T2 sequence (P35353 24-415): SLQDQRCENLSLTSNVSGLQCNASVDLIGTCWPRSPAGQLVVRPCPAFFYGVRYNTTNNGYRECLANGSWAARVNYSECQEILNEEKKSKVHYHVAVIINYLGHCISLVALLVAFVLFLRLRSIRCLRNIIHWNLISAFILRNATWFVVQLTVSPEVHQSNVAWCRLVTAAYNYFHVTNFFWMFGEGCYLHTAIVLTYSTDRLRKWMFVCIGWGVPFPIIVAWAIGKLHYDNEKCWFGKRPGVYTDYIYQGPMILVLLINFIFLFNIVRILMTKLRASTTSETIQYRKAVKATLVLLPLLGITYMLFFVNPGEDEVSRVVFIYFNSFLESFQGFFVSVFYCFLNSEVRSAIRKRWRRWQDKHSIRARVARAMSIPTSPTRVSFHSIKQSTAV
Method: The abilities of Ucn II and Ucn III to activate adenylate cyclase in cells expressing endogenous CRF-R1 (cultured primary anterior pituitary cells, (5)) or CRF-R2β (A7r5 cells, (27)). Rat aortic smooth muscle cells, A7r5, were plated into 48-well culture dishes and allowed to recover for 48 h. Cells were starved in DMEM/0.2% FBS overnight before the experiment. The cells were preincubated with 0.1 mM 3-isobutyl-1-methylxanthine for 30 min and then exposed to peptides for 20 min at 37° C. Rat anterior pituitary cells were established in culture (28) and treated with test peptides for 45 min at 37° C. Intracellular cAMP was extracted from all cells and measured from triplicate wells using a radioimmunoassay kit (Biomedical Technologies). Potencies were determined using the PRISM […].

[4] = molecular target: T3, hCRF-R1 (Homo sapiens, UniProt P34998); experiment: cAMP accumulation in CHO cells stably expressing hCRF-R1; type: cell-based; conditions: 1 μM
T3 construct: expressed in transfected cells
T3 sequence (P34998 24-415): T2 sequence (P35353 24-415) with R6H, N9S, T13A, V16I, V153M, A163G, V209I, H229Y, R356H
Method: The medium was changed at least 2 h before treatments to DMEM/0.1% FBS. The cells were preincubated with 0.1 mM 3-isobutyl-1-methylxanthine for 30 min and then exposed to peptides for 20 min at 37° C.

Row | Substance | Affinity for CRF-BP [1] | Glucagon secretion [2] | Blood sugar levels ([2]; subsequent to glucagon rise) | Ability to increase cyclic AMP in cultured pituitary cells expressing CRF-R1 [3] | Activation of CRF-R1 (cAMP) at very high doses [4]
1 | urocortin III (FTLSLDVPTNIMNLLFNIAKAKNLRAQAAANAHLMAQI; ends and bridges not checked; UniProt Q969E3 120-157, looked up) [Ucn III, urocortin III, species (human or mouse) not specified at the place] | neither Ucn II nor Ucn III exhibit appreciable affinity | rapidly stimulated glucagon secretion | elevates blood sugar levels | inactive | no activation
2 | urocortin [Urocortin (rat)] | subnanomolar |  |  |  | 
3 | urocortin II (IVLSLDVPIGLLQILLEQARARAAREQATTNARILARVGHC; ends and bridges not checked; UniProt Q96RP3 72-112, looked up) [Ucn II, urocortin II, species (human or mouse) not specified at the place, reference compound] | neither Ucn II nor Ucn III exhibit appreciable affinity |  |  | low potency | 
